The source of these data is publication PMC4368157, “The Interaction Affinity between Vascular Cell Adhesion Molecule-1 (VCAM-1) and Very Late Antigen-4 (VLA-4) Analyzed by Quantitative FRET” (PLoS ONE, 2015).

Usually Kd stands for the free concentration of one partner at which half of the binding sites on the other are occupied at equilibrium, for simple one-to-one binding.

The target in test [1] is T1, Alexa Fluor 488-VLA-4 conjugate (human recombinant Very late antigen-4, soluble form) (human, UniProt P13612 35-977; P05556 21-728, Alexa Fluor 488 on aliphatic amine groups (amine terminus, ε-amino groups of lysines); F/P ratio of the conjugate 3.0 ± 0.8; sites and chain not stated | Alexa Fluor 488 on aliphatic amine groups …).
T1 construct: integrin α4 subunit (CD49d) of VLA-4, human, recombinant soluble form; integrin β1 subunit (CD29) of VLA-4, human, recombinant soluble form; also called AF488-VLA-4; A488-VLA-4; source: bought: R&D Systems; conjugated with Alexa Fluor 488 succinimidyl ester, dialysed
T1 sequence (P13612 35-977, chain 1 of 2): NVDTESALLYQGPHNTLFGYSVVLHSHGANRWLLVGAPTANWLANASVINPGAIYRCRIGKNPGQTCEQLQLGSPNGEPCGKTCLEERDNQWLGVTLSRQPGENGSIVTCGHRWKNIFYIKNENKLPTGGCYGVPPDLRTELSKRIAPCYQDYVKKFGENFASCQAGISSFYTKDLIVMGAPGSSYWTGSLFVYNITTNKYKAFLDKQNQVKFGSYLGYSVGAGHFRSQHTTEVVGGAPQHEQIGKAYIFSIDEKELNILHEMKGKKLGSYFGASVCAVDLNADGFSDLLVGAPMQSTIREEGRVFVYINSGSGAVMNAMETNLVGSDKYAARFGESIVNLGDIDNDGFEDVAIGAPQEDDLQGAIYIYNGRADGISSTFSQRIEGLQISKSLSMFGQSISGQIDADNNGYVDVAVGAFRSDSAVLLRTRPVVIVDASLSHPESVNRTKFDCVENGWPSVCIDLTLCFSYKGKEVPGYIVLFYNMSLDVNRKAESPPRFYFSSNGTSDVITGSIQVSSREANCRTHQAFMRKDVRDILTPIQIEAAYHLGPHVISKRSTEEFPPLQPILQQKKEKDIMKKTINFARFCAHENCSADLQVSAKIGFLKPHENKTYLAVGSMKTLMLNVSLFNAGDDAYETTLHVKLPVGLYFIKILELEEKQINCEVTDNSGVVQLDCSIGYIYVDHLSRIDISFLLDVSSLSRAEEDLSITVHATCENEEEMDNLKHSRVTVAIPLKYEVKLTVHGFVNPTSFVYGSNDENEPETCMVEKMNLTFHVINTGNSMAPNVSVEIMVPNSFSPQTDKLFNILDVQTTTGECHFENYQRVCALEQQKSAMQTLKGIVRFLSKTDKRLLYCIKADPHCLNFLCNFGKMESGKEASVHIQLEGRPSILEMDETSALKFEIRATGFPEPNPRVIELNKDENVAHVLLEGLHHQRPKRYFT
T1 sequence (P05556 21-728, chain 2 of 2): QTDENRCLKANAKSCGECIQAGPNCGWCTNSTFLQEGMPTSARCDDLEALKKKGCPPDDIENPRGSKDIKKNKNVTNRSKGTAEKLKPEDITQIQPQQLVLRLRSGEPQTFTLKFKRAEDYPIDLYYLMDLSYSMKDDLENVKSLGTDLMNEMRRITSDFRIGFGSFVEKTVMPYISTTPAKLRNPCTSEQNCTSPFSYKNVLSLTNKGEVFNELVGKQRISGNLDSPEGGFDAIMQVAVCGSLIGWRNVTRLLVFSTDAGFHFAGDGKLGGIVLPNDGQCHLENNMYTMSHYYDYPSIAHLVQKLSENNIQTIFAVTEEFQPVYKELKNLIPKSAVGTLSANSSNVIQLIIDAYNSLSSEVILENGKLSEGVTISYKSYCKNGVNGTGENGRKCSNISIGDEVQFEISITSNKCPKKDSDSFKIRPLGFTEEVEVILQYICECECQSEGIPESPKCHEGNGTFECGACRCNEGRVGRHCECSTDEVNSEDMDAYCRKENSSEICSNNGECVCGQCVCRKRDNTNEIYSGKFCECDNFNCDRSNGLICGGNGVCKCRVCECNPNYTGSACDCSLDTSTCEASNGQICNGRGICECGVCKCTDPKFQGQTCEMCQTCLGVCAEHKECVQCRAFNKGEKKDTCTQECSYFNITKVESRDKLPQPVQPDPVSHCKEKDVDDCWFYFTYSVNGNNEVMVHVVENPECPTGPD
As to the kind of experiment: FRET or BRET; in solution, steady state; donor AF488-VLA-4 fixed at 350 nM, acceptor AF546-VCAM-1 titrated up to 850 nM; PBS with 1 mM EGTA, 2 mM MgCl2, pH 7.4, 30 minutes, 96-well plate; excitation 470 nm; fit assumes one-to-one interaction. Conditions: both partners purified. In general terms: BRET reads energy transfer from a luciferase to a nearby fluorophore.

Test [2] addresses T2, human recombinant VLA-4 (Very late antigen-4, soluble form, without fluorophore) (human, UniProt P13612 35-977; P05556 21-728).
T2 construct: integrin α4 subunit (CD49d) of VLA-4, human, recombinant soluble form; integrin β1 subunit (CD29) of VLA-4, human, recombinant soluble form; Same bought protein as in m1, not conjugated; also called CD49d/CD29; α4β1; source: bought: R&D Systems
The experiment in a line: SPR; BIAcore 3000, CM5 chip; VCAM-1Fc captured by immobilised anti-human IgG (Fc); VLA-4 flowed at 100, 150, 400, 450 and 500 nM; PBS with 1 mM EGTA and 2 mM Mg2+; 5 μl/min; Langmuir model. Conditions: both partners purified.

T2 sequence (P13612 35-977, chain 1 of 2): as the sequence (P13612 35-977, chain 1 of 2) above
T2 sequence (P05556 21-728, chain 2 of 2): as the sequence (P05556 21-728, chain 2 of 2) above

B1: Alexa Fluor 546-VCAM-1 conjugate (human recombinant Vascular Cell Adhesion Molecule-1, soluble form) (ligand, UniProt P19320 25-698, looked up)
chain: FKIETTPESRYLAQIGDSVSLTCSTTGCESPFFSWRTQIDSPLNGKVTNEGTTSTLTMNPVSFGNEHSYLCTATCESRKLEKGIQVEIYSFPKDPEIHLSGPLEAGKPITVKCSVADVYPFDRLEIDLLKGDHLMKSQEFLEDADRKSLETKSLEVTFTPVIEDIGKVLVCRAKLHIDEMDSVPTVRQAVKELQVYISPKNTVISVNPSTKLQEGGSVTMTCSSEGLPAPEIFWSKKLDNGNLQHLSGNATLTLIAMRMEDSGIYVCEGVNLIGKNRKEVELIVQEKPFTVEISPGPRIAAQIGDSVMLTCSVMGCESPSFSWRTQIDSPLSGKVRSEGTNSTLTLSPVSFENEHSYLCTVTCGHKKLEKGIQVELYSFPRDPEIEMSGGLVNGSSVTVSCKVPSVYPLDRLEIELLKGETILENIEFLEDTDMKSLENKSLEMTFIPTIEDTGKALVCQAKLHIDDMEFEPKQRQSTQTLYVNVAPRDTTVLVSPSSILEEGSSVNMTCLSQGFPAPKILWSRQLPNGELQPLSENATLTLISTKMEDSGVYLCEGINQAGRSRKEVELIIQVTPKDIKLTAFPSESVKEGDTVIISCTCGNVPETWIILKKKAETGDTVLKSIDGAYTIRKAQLKDAGVYECESKNKVGSQLRSLTLDVQGRENNKDYFSPE
modifications: Alexa Fluor 546 on aliphatic amine groups (amine terminus, ε-amino groups of lysines); F/P ratio 0.60 ± 0.02; sites not stated
notes: Vascular Cell Adhesion Molecule-1 (VCAM-1/CD106), human, recombinant soluble form; also called AF546-VCAM-1; CD106; source: bought: R&D Systems; conjugated with Alexa Fluor 546 succinimidyl ester, dialysed
Turning to B1, the Kd in test [1] came out at 41.8 nM.

B2: human recombinant VCAM-1 Fc chimera (Fc fusion, UniProt P19320 25-698, looked up)
chain: B1 chain
notes: Vascular Cell Adhesion Molecule-1 (VCAM-1/CD106), human, recombinant soluble form fused to Fc; source: bought: R&D Systems
For the molecule B2, the equilibrium dissociation constant (Kd) in test [2] came out at 39.6 ± 1.78 nM.
